Source: the nanobody polyreactivity screen of Harvey et al. (2022)

Test: yeast display, Sf9 membrane polyspecificity reagent, FACS + sequencing; frameworks hold sequencing errors
Procedure, shortened: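 After 36–48 hours of galactose induction, yeast (Saccharomyces cerevisiae BJ5465) displaying a synthetic nanobody library were stained at 4 °C for 1 hour with 10% biotinylated, detergent-solubilized Sf9 membrane reagent. Streptavidin microbeads enriched the stained cells before FACS sorting into low and high (top ~1%) gates on anti-HA and streptavidin fluorescence. Each clone's polyreactivity label reflects its gate of origin.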

Sequence | polyreactivity (PSR sort gate)
QDQLVESGGGFVQAGGSLRLSCAASGFIFVTYAMGWFRQAPGKERELVAAITWSTTSTYYADSVKGRFTISRDNAKNTVYLQMNSLKPDETAVYSCAKYYFQYKHDYWGQGTQVTVSS | low polyreactivity
QVQLVESGGGLVQAGGSLRLSCAASGLIFYDNAMGWYRQAPGKERELVAAISWGGGTTYYADSVKGRFTISRDNAKNTVYLQMISLKPDDTAVYYCAAEEALFYDFYYVLLDYWGQGTQVTVSS | high polyreactivity
QVQRVESGGGLVQAGGSLRLSCAASGFIFARNAMGWNRPAPGKERELVAAINQSGGITRYADSVKGRFTISRDNAKNTVYLQMNSLKPEDTAVYYCATPLYVRYDYWGQGSQVTVSS | high polyreactivity
QVQLVESGGGLVQAGGSLRLSCAASGSTLYNYAMGWYRQAPGKERELVAAITKSGGRTYYADSVKGRFTISRDNAKNTVYLQMNSLKAEDTAVYYCAADRTQYARFDSWGQGTQVTVSS | high polyreactivity
QVQLVESGGGLVQAGGSLRLSCAASGFIFRYYAKGWYRQAPGKERELVAAISSSGGSTYYADSVKGRFTISRDNAQKTVYLQMNSLKPEDTAVYYCNAYNYGYIGYGYNYWGQGTQVTVSS | high polyreactivity
QVQLVESGGGLVQAGGSLRLSCAASGSIFKRNDMGWYRQAPGKDRELVASISSGGSTHYADSVKGRFTISRDNAKNTVSLQMNSLKPEDTAVYYCAATSIRWSVGSFRRDYWGQGTQVTVSS | low polyreactivity
QVQLVESGGGLDQAGVSLRLSCAASGNIFSWNTMGWYRPAPGKERELVAAITFRGTRTFYADSVKGRFTISRDNAKNNVYLHMNSLKPEDTAVYYSAARYYYSYSLGYDYWGQGTQVTLSS | high polyreactivity
QVQLVESGGGLVQAGGSLRLSCAAAGRLFGPYAMGWYGQAPGKERELVASISYSGGSTYYADSVKGRFTISRDNAKNTVYLQMNSLKAEDTAVYYCAKGGYWRGYNYWGQGTQVTVSS | low polyreactivity
QVQLVESGGGLVQAGGSLRLSCAASGGTFPTNAMGWYRQAPGKERELVAAITSSGVRTYYADSVKGRFTISRDNAKNTVYLQMNSLKPEDTAVYYCATYSYTWMNYYWGQGTQVTVSS | high polyreactivity
QVQLVDSGGGLVQAGGSLRLSCAASGFIFWYYAMGWYRQEPRKERELVAAITSGGNTNYADSVKGRFTISRDNAKNTVYLQMNSLKPEDTAVYYCATGRASGREHDSWGQGTQVTVSS | low polyreactivity
QVQLVESGVGLVQAGGSLRLSSADSGRTSPGNAMGWYRQAPGKETELVAAINVSGGSTYYADSVKGRFTISRDNAKNTVYLQMNSLKPEDTAVYDCATDTGYPYSYDLYDSYYWGQGTQVTVSS | low polyreactivity
QVQLVESGGGLVQAGGSLRLSCDASGSTFVGNSMGWYRPAPGKERELVAALTQSGGNTFYADSVKGRFTISRDYAKNTVYLQINSLKPEDTAVYYCAATVSNGVKLDGPARVDLDYWGQGTQVTVSS | low polyreactivity
QVQLVESGGGLVQAGGSHRLSCAASGRTFYQNAMGWYRQAPGKERELVATISQRGGSTYYADSVKGRFTISRDTAKNTVYLQMNSLKPEDTAVYYCAKGRYAYSIWDDYWGQGTQVTVSS | low polyreactivity
QVQLVESGGGLVQAGGSLRLSCAASGSIFWVYAMGWYRQAPGKERELVAVIDWSGDSTYYADSVKGRFTISRDNAKNTVYLQMNSLKPEDTAVYYCSAEVYVDYTGYSYFDYPYDYWGQGTQVTVSS | low polyreactivity
QVQVVESGGGLVQAGGSLRLSCAASGSTFVRNAMGWYRQAPGKDRELVAAITTSGARTYYADSVKGRFTISRDNAKHTVYLQMNSLKPEDTAVYYCAAEYKGRTYRFDYWGQGTQVTVSS | low polyreactivity
HVQLVESGGGLVQAGGSLRLSCAASGSTFSYNAMGWYRQAPGKEWELVAAISWRGTSTYYADSVKGRFTISRDNAKKTVYLQMNSLKPEDTAVYYCAAPYGVSYKGATYDSWGQGTQVTVSS | high polyreactivity

Sequence | polyreactivity (PSR sort gate)
QVQLVESGGGLVQAGGSLRLSCAASGIIFPYYTMGGYRQAPGKERELVARITNGGRTYSADSVKGRFTISRDKAKNTVYLQMNSLKPEDTAVYYCAASWGRRKPRMDYWGQGTQVTVSS | high polyreactivity
QVQLVESGGGLVQAGGSLRLSCAASGSTLRRYAMGWYRQAPGKERELVAAISGTGSRTYYADSVKGRFSISRDNATNTVYLHMISLKREDTAVYYCNASPYGLTENDYWGQGTQVTVSS | high polyreactivity
QVQLVESGGGLVQAGGSLRLSCAASGFIFYSNAMGWYRQAPGKERELVAAISRRGGSTYYADSVKGRFTISRDNAKNTVYLQMNSLKPEDTAVYYCAATFKSGMDYWGQGTQVTVSS | high polyreactivity
QVQLVESGGGLVQAGGSLRLSCAASGRISGYKVMGWYRQAPGKERELVAAISGSGGSTYYADSVKGRFTISRDNAKNTVYLQMNSLKPEDTAVYYCAKATAYPYDYWGQGTQVTVSS | low polyreactivity
QVQLVESGGGLVQAGGSLRLSCAASGSIFETYDMGWYRQAPGKERELVAAITLSGGSTYYADSVKGRFTISRDNAKNTVYLQMNSLKPEDTAVYYCAADDSGVKVWEGDYWGQGTQVTVSS | low polyreactivity
QVQLEESGGGLVQAGGSLRLSCAASGSTLNRYPMGWNRHATGKERELVATIRWSGGSTYYADSVKPRFTISRYNEKHTVDLQMNSLKAEDTAVYYCAPDRYYYRGRYYGYTREFDYWGQGTHVTVSS | high polyreactivity
QVQLVESGGGLVQAGGSLRLSCAASGRTFNYNSMGWYRQAPGKERELVAAISATGGTTYYADSVKGRFTISRDNAKNTVYLQMNSLKPEDTAVYYCAADTPPYYAYWDVSFEYYYWGQGTQVTVSS | low polyreactivity
QVQLVESGGGLVQAGGSLRLSCAASGSIFSSNAMGWYRQAPGKERELVAAISKSGSRTYYADSVKGRFTISRDNAKNTVYLQMNSLKPEDTAVYYCNAVGVSVYYAIAYDYWGQGTQVTVSS | high polyreactivity
QDQLVETAGGLVQAGVTHTLSCAASAFTFRNYAMGWYRQAPGKESEFVAAISRRGGSTYYADSVKGRFTISRDNAKNTVYLQLNCLKPEDTAVYYCATEPGKQNTYRMDYWGQGTQVTVSS | high polyreactivity
QVQLVESGGGLFQAGGSLRLSCAASGIIFPRYMGWYRQAPGKERELVAAIRWSSDDTNYADSVKGRFTISRDNAKNTVYLQMNSLKPEDTAVYYCAADSYYDRTIQFEFSARTYEYWGQGTQVTVSS | low polyreactivity
QVQLVESGGGLVQAGGSLRLSCAASGRIFTIYAMGWYRQAPAKARELVAAISDRGTRTYYADSVKGRFTISRDNAKNTVFLKMNSLKPEDTAVYYCASDALYTYGYDYWGKGTQVTVSS | low polyreactivity
QVHLVESGGGLVQAGGSLRLSCAASGSTLYWYAMGWYRQAPGKERELVARITVSGGSTSYADSVKGRFTISRDNAKNTVYLQMNSLKPEDTAVYYCAARRYWTGYYYWGQGTQVTVSS | high polyreactivity
QVQLVESGGGLVQAGGSLRLSCAASGSILGTYAMGWYRQAPGKERELVAAISWNGGSTYYADSVKGRFTISRDNAKNTVYLQMNSLKPEYTAVYYCAARQWSQGWYDYWGQGTQVTLSS | high polyreactivity
QVQLVESVGGLVQAGGSLRLSCAASGSIFFNYTMGWYRQAPGKERELVAAINSSGGRTNYADSVKGRFTISRDNAKNTVYLQMNSLKPEDTAVYYCAAVYYDVWYVYWGQGTQVTVSS | low polyreactivity
QVQLVESRGGLVQAGGSLRLSFGASGRTFRWYAMVWYRQAPGKERELVAAITYSVGSTYYADSVKGRFTISRDNAKNTVYLQMNSLKPEDSAVYSCAADSYPYRYRGKYSRLDYWGQGTQVTVSS | low polyreactivity
